Data as given in US20060239990A1, “Protein Arginine N-Methyltransferase 2 (PRMT-2)” (priority 2003, published 2006).

Experiments:
NF-κB = NF-κB luciferase reporter assay in 293T cells; assay type: cell-based, human; details: for NF-κB activity: 1 μg expression construct, 100 ng 5 κB luciferase reporter; for IKK2- and p65-induced NF-κB activity: κB luciferase reporter, 48 hrs
Experimental: Cell culture, transfection, and reporter gene assays. The E1A-transformed, human kidney cell line, 293, and NIH-3T3 cells were maintained in Dulbecco's Modified Eagle Medium (DMEM) supplemented with 10% fetal calf serum and penicillin-streptomycin at 37° C. in 5% carbon dioxide in tissue culture grade Petri dishes. PRMT-2−/− mouse embryo fibroblasts (MEFs) and wild type MEFs were prepared from day 13.5 embryos and maintained in DMEM supplemented with 10% fetal calf serum. MEFs at passage 4 were used in this experiment. Lipofectamine Plus™ reagent (Boehringer Mannheim) was used to transfect both 293 and NIH-3T3 cells according to directions from the manufacturer. […] TNF-α stimulation of cells was done using recombinant TNF-α (200 U/ml) for 12 hours. […] CAT assays were performed essentially as described in Leung, K. & Nabel, G. J. Nature 333, 776-778 (1988). To analyze the κB-reporter activity in MEFs, cells were transfected with the reporter (2×kB-Luc) and PRL-TK vector (Promega) using FuGENE6 transfection reagent (Roche). Luciferase activity was analyzed by Dual-Luciferase Reporter Assay System (Promega).
To map the domains responsible for inhibition of HIV transcription, truncation and point mutations were made in PRMT2 (FIG. 1D) and co-transfected with an NF-κB reporter in 293T cells. PRMT2-A represents an alternatively spliced form of PRMT2 found in the expressed sequence tag (EST) database. This isoform contains the first 218 amino acids of PRMT2 and differs from full length PRMT2 by the absence of the less conserved COOH-terminal domain. PRMT2-N was generated by introducing a stop codon after amino acid 95 before the putative Ado-Met domain of PRMT2. To analyze the role of the Ado-Met domain further, another mutant, PRMT2-4A, was prepared in which 141ILDV144 (SEQ ID NO:5) in this region were altered to four consecutive alanines to compare the effects of point mutations in this highly conserved region.
The mechanism and site of action of PRMT2 in the NF-κB signaling pathway was further defined by co-transfection of PRMT2 and its mutants with different regulators in this pathway with an NF-κB reporter in 293T cells (FIG. 2D).

IκB-α = assay: Co-immunoprecipitation with endogenous IκB-α in 293 cells; assay type: binding, human; details: HA-tagged constructs in 293 cells
Chain of IκB-α (P25963 whole entry, the tested form may be a part): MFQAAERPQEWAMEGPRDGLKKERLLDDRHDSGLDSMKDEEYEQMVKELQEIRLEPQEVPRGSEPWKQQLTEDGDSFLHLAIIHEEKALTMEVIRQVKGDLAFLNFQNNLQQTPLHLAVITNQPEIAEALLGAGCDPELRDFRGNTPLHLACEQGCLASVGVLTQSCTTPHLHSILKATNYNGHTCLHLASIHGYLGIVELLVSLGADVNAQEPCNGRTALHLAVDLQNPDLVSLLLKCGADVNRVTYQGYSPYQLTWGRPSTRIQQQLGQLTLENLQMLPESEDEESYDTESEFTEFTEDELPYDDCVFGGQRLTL
Excerpt: A polyclonal antibody to recombinant PRMT2 was used to examine the association between endogenous PRMT2 and IκB-α in vivo. […] The domain of IκB-α required for association with PRMT2 was mapped using in vivo immunoprecipitation assays where HA-tagged PRMT2 was coexpressed with truncation mutants of His-tagged IκB-α (FIG. 5B) in 293 cells. The ankyrin domain was both necessary and sufficient for this association (FIG. 5D, lanes 1 and 2). The domain of PRMT2 that interacted with endogenous IκB-α was mapped by immunoprecipitation following expression HA-tagged PRMT2 truncation mutants (FIG. 5C). […] When the ratios of PRMT2 or PRMT2-A binding to IκB-α were compared, both interacted with IκB-α with similar affinity.

p50/p65 complex = assay: NF-κB DNA binding assay (EMSA); assay type: biochemical, human; details: 293 cells cotransfected with p50 and p65 expression vectors
Experimental: DNA binding assay. Electrophoretic mobility shift assays (EMSAs) were conducted on 10 μg of nuclear extract protein from 293 cells transiently transfected with pRSV p50/p65 expression constructs and pVR1012 PRMT-2-A/PRMT-2-N expression constructs. A modified Dignam procedure (Dignam et al. Nucleic Acids Res. 11, 1475-1489 (1983)) was used to prepare nuclear extracts from 293 cells. Perkins, N. D. et al. Science 275, 523-527 (1997). NF-KB DNA binding was assayed using a double-stranded 32P-labeled κB probe (Geneka Biotechnology). DNA binding assays were performed as described previously. Perkins et al. Science 275, 523-527 (1997). Supershifting was done using NF-κB p65 (C-20) and NF-κB p50 (H-119) (Santa Cruz). GST-PRMT-2-A fusion proteins were expressed in BL21 (DE3) cells and extracts were prepared as described previously. Smith, D. B. & Johnson, K. S. Gene 67, 31-40 (1988).

STAT3 = STAT3 arginine methylation in transfected HEK293 cells; assay type: cell-based; details: 24 hr after transfection, α-metR immunoblot
Experimental: Vascular smooth muscle cells (VSMC) were prepared from the thoracic aorta of 12-week-old-male wild-type and PRMT-2^−/− mice by the explant method. Mouse embryo fibroblasts (MEFs) were prepared from 13.5-day wild-type and PRMT-2^−/− embryos. VSMCs and MEFs were cultured in Dulbecco's modified Eagle's medium (DMEM) containing 10% fetal calf serum (FCS) at 37° C. in a humidified atmosphere of 95% air-5% CO2. The integrity of PRMT-2 expression in the established VSMCs and MEFs lines was confirmed by Western and immunofluorescence analysis (data not shown). Quiescent VSMC (3-5th passages) that had been serum-starved for 48 hr were used in the following experiments. HEK293 cells were also grown in DMEM plus 10% FCS and were transiently transfected with FuGENE6 transfection reagent (Roche Applied Science, Indianapolis, Ind.) according to the manufacture's protocol. For each transfection, 2 μg of expression construct for mouse PRMT-2 and 8 μg for mouse STAT3 were used. After 24-48 hr of transfection, cells were used for the following experiments.
Immunoprecipitation of STAT3 was performed as follows. […]

[1] = tested on: HIV-1, HIV-2, HTLV-1, or HTLV-2 reporter plasmids; assay: CAT reporter assay with viral reporter plasmids in 293 cells; assay type: cell-based, human
Experimental: Cell culture, transfection, and reporter gene assays. The E1A-transformed, human kidney cell line, 293, and NIH-3T3 cells were maintained in Dulbecco's Modified Eagle Medium (DMEM) supplemented with 10% fetal calf serum and penicillin-streptomycin at 37° C. in 5% carbon dioxide in tissue culture grade Petri dishes. PRMT-2−/− mouse embryo fibroblasts (MEFs) and wild type MEFs were prepared from day 13.5 embryos and maintained in DMEM supplemented with 10% fetal calf serum. MEFs at passage 4 were used in this experiment. Lipofectamine Plus™ reagent (Boehringer Mannheim) was used to transfect both 293 and NIH-3T3 cells according to directions from the manufacturer. […] TNF-α stimulation of cells was done using recombinant TNF-α (200 U/ml) for 12 hours. Transfected cells were harvested at 36 hours, and CAT activity was assayed on 10 to 100 μg of protein from whole cell extracts. CAT assays were performed essentially as described in Leung, K. & Nabel, G. J. Nature 333, 776-778 (1988). To analyze the κB-reporter activity in MEFs, cells were transfected with the reporter (2×kB-Luc) and PRL-TK vector (Promega) using FuGENE6 transfection reagent (Roche). Luciferase activity was analyzed by Dual-Luciferase Reporter Assay System (Promega). […]

| Molecule | NF-κB activity (NF-κB) | IKK2- and p65-induced NF-κB activity (NF-κB) | association with endogenous IκB-α (IκB-α) | NF-κB DNA binding in nuclear extracts of transfected cells (p50/p65 complex) | Stat3 methylation (STAT3) | expression from HIV-2 or HTLV reporter plasmids [1] | HIV-1 CAT expression ([1]; HIV-1 reporter plasmid) |
| --- | --- | --- | --- | --- | --- | --- | --- |
| PRMT2-N: generated by introducing a stop codon after amino acid 95 of PRMT-2, SEQ ID NO:4 (protein, A synthetic PRMT-2-N polypeptide) MATSGDCPRSESQGEEPAECSEAGLLQEGVQPEEFVAIADYAATDETQLSFLRGEKILILRQTTADWWWGERAGCCGYIPANHVGKHVDEYDPED | did not | unable to block this effect | did not associate | did not affect NF-κB DNA binding |  |  |  |
| mutant PRMT-2: mutated PRMT-2 lacking functional Ado-Met domain (the PRMT-2-4A mutant according to b407) (protein) MATSGDCPRSESQGEEPAECSEAGLLQEGVQPEEFVAIADYAATDETQLSFLRGEKILILRQTTADWWWGERAGCCGYIPANHVGKHVDEYDPEDTWQDEEYFGSYGTLKLHLEMLADQPRTTKYHSVILQNKESLTDKVAAAAGCGTGIISLFCAHYARPRAVYAVEASEMAQHTGQLVLQNGFADIITVYQQKVEDVVLPEKVDVLVSEWMGTCLLFEFMIESILYARDAWLKEDGVIWPTMAALHLVPCSADKDYRSKVLFWDNAYEFNLSALKSLAVKEFFSKPKYNHILKPEDCLSEPCTILQLDMRTVQISDLETLRGELRFDIRKAGTLHGFTAWFSVHFQSLQEGQPPQVLSTGPFHPTTHWKQTLFMMDDPVPVHTGDVVTGSVVLQRNPVWRRHMSVALSWAVTSRQDPTSQKVGEKVFPIWR |  |  |  |  | failed to evoke STAT3 methylation |  |  |
| PRMT2-A: alternatively spliced form containing the first 218 amino acids of PRMT-2, SEQ ID NO:3 (protein, A synthetic PRMT-2-A mutant polypeptide) MATSGDCPRSESQGEEPAECSEAGLLQEGVQPEEFVAIADYAATDETQLSFLRGEKILILRQTTADWWWGERAGCCGYIPANHVGKHVDEYDPEDTWQDEEYFGSYGTLKLHLEMLADQPRTTKYHSVILQNKESLTDKVILDVGCGTGIISLFCAHYARPRAVYAVEASEMAQHTGQLVLQNGFADIITVYQQKVEDVVLPEKVDVLVSEWMGTCLL | inhibited NF-κB activity | inhibited both IKK2- and p65-induced NF-κB activity | interacted |  |  | No significant reduction | substantially inhibited |
